The source of these data is PMC11189300.

The target of this assay is KNL1 (construct of the BLI titrations with ZWINT). The assay can be described thus: BLI. The following applies: immobilized ligand KNL1, end of association (~500 s), parent read from panel c, read off a plot.

Regarding “ZWINT (from UniProt O95229) C54A; L67A; I110A; L114A”, the response (analyte ZWINT^M1 15.6 nM, parent: est. 0.040) was 0.025 nm; the response (analyte ZWINT^M1 31.2 nM, parent: est. 0.056) came to 0.052 nm; the response (analyte ZWINT^M1 62.5 nM, parent: est. 0.071) amounted to 0.071 nm; the response (analyte ZWINT^M1 125 nM, parent: est. 0.10) is 0.1 nm; the response (analyte ZWINT^M1 250 nM, parent: est. 0.14) is 0.14 nm; the response (analyte ZWINT^M1 500 nM, parent: est. 0.19) amounted to 0.2 nm. Also, for the setting “analyte ZWINT^M1 1,000 nM, parent: est. 0.22”, the response amounted to 0.19 nm.
Regarding “ZWINT (from UniProt O95229) C54A; S85R; I110A; L114A”, the response is, setting by setting: (analyte ZWINT^M2 500 nM, parent: est. 0.19) 0.055 nm; (analyte ZWINT^M2 1000 nM, parent: est. 0.22) 0.11 nm.
